Source: publication doi:10.1101/2023.02.03.527086

Biological target: T1, interferon regulatory factor 3 (IRF3) (human (endogenous in AC16)), Q14653
T1 chain: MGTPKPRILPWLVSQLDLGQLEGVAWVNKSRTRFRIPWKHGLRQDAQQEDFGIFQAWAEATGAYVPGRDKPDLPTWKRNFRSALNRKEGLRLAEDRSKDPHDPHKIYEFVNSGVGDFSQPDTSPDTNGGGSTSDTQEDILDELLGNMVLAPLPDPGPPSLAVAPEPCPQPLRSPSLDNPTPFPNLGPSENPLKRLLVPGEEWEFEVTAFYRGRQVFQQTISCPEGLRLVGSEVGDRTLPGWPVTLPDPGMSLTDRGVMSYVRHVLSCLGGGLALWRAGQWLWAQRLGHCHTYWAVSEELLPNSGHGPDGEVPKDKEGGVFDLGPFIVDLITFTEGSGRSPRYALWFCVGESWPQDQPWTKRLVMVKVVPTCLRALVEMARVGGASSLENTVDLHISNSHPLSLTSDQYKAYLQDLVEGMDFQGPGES
Experiment: native gel or EMSA
Settings: remark: other sources report otherwise

B1: interferon regulatory factor 3 (IRF3), Q14653 1-427 (natural protein)
chain: T1 chain
stoichiometry N: 2
